Values belong to the molecule of their own block, whether it stands above or below them.
Tests used:
[1] = set-up: species or system Balb/c mice; conditions: mouse, in vivo
Method: Their pharmacokinetic profile in blood was evaluated in vivo by injecting each ^131I-labeled DIII protein intravenously in Balb/c mice. Blood was drawn from the tail at eight different time points (0-72 h) and the radioactivity was counted in a gamma well counter.

[2] = assay type: physicochemical
Method: (§1) When dissolved in aqueous solution, the peptide precipitated. Lack of solubility in water immediately renders this peptide inappropriate for in vivo application. Prior to conjugation, the HyNic modified peptide was dissolved in dimethyl formamide (DMF) organic solvent. The purified DIM was modified to incorporate the 4FB moiety at random lysine residues following protocols provided by SoluLink. After conjugation, the peptide/DIII ratio was determined by measuring A354nm to be an average of 2 CEA specific peptides for every DIIIb molecule and the conjugate was soluble in aqueous solutions. Size exclusion chromatography using Superdex 200 column (GE Healthcare Piscataway, N.J.) was used for purification. Purified anti-CEA peptide-DIIIb conjugates were then radiolabeled with ^124I and injected intravenously in four athymic nude mice bearing LS174T (CEA positive) and C6 (CEA negative) tumors. Mice were imaged by small animal PET/CT at 4, 20 and 27 h, after which mice were euthanized, dissected and tissues/organs were counted in a gamma well counter.

[3] = system: LS174T (CEA positive) tumor; assay type: in vivo, athymic nude mice
Method: as §1

Molecule: DIII H464A: HSA domain III variant with H464 mutated to alanine
AUC (time integral of the blood uptake) [1]: 199 % ID/g × h
Aα (amplitude) [1]: 44.95 % ID/g
Aβ (amplitude) [1]: 11.41 % ID/g
k1 [1]: 1.438
k2 [1]: 0.068
t1/2α [1]: 0.482 h
t1/2β [1]: 10.2 h

Molecule: DIII WT: HSA domain III wild type (amino acid residues 384 to 585)
AUC (time integral of the blood uptake) [1]: 474.8 % ID/g × h
Aα (amplitude) [1]: 36.2 % ID/g
Aβ (amplitude) [1]: 16.81 % ID/g
k1 [1]: 0.3479
k2 [1]: 0.04534
t1/2α [1]: 1.99 h

Solubility in aqueous solution [2]: precipitated
Molecule: SDWVCEFIKSQWFCNVLASG [CEA specific, cyclic peptide, reference compound]

B1: anti-CEA peptide-DIIIb conjugate: CEA specific cyclic peptide (HyNic) conjugated to 4FB-modified DIIIb, average of 2 peptides per DIIIb (conjugate)
chain: HADICTLSEKERQIKKQTALVELVKHKPKATKEQLKAVMDDFAAFVEKCCKADDKETCFAEEGKKLVAASQAALGL
peptide: SDWVCEFIKSQWFCNVLASG
modifications: cyclised or stapled
notes: CEA specific cyclic peptide (HyNic) conjugated to 4FB-modified DIIIb, average of 2 peptides per DIIIb
Solubility in aqueous solution [2]: soluble
(CEA positive) tumor/(CEA negative) tumor ratio ([3]; 27 h): 1.2
Tumor/muscle ratio ([3]; 27 h): 5.1
tumor/blood ratio ([3]; 27 h): 0.51
Targeting of CEA positive tumor ([3]; PET/CT images): target the CEA positive tumor
Blood ([3]; mouse, in vivo): 3.00 % ID/g
C6 Tumor ([3]; mouse, in vivo): 1.26 % ID/g
Carcass ([3]; mouse, in vivo): 0.56 % ID/g
Kidneys ([3]; mouse, in vivo): 3.66 % ID/g
LS174T Tumor ([3]; mouse, in vivo): 1.53 % ID/g
Liver ([3]; mouse, in vivo): 1.42 % ID/g
Lungs ([3]; mouse, in vivo): 2.36 % ID/g
Muscle ([3]; mouse, in vivo): 0.30 % ID/g
Spleen ([3]; mouse, in vivo): 1.04 % ID/g
Stomach ([3]; mouse, in vivo): 1.07 % ID/g

— patent US20160083450A1, “HUMAN PROTEIN SCAFFOLD WITH CONTROLLED SERUM PHARMACOKINETICS” (THE REGENTS OF THE UNIVERSITY OF CALIFORNIA, priority 2009, published 2016)
